This passage reports share of expressed protein remaining in the unbound fraction results from patent US6485937.

Some results are limits rather than exact numbers.

In this test the target is FLAG-epitope tagged HIV tat interacting protein of 30 kDa (f-TIP30) (human (isolated from HeLa cells)) (UniProt Q9BUP3). The test can be described thus: affinity chromatography of B. mori fat bodies extract, SDS-PAGE of the unbound fraction; the filing puts this down to saturated beads.
Chain of UniProt Q9BUP3 (Q9BUP3 other isoform, or with tags, fused parts or gaps limits assumed): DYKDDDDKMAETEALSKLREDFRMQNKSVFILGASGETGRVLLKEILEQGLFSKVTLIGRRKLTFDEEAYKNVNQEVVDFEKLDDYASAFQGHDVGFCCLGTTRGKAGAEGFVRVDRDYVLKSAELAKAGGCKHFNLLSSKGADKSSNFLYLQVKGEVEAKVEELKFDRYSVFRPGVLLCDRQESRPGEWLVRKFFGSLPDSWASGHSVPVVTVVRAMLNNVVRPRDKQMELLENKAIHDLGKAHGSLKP

M2-Agarose resin (Sigma) (antibody) displayed a share of expressed protein remaining in the unbound fraction of more than 30%.
